Measured values from patent US20230346773A1, “USE OF PCSK9 INHIBITOR IN PREPARATION OF PRODUCT FOR TREATING MULTIPLE DISEASES” (priority 2020, published 2023).
Marks after values point to notes of the source that are not given here.

Legend:
[1] = system: androgenetic alopecia (SA) rat model; experiment: Androgenetic alopecia (SA) rat model induced by testosterone propionate; assay type: in vivo, Wistar rats
Method: SPF grade Wistar rats were selected and randomly divided into compound group 1 (skin applied with 5% R-IMPP solution), compound group 2 (skin applied with 5% PF 06446846 solution), and compound group 3 (skin applied with 5% SBC-115076 solution), compound group 4 (skin applied with 5% SBC-110736 solution), monoclonal antibody group 1 (subcutaneous injection of PCSK9 monoclonal antibody ab84041, 5 mg/kg·d), monoclonal antibody group 2 (subcutaneous injection of Evolocumab, 5 mg/kg·d), monoclonal antibody group 3 (subcutaneous injection of Alirocumab, 5 mg/kg·d), PCSK9 RNAi inhibitor group-1 (skin applied with 5% PCSK9 small interfering RNA-1 solution), PCSK9 RNAi inhibitor group-2 (skin applied with 5% PCSK9 small interfering RNA-2 solution), PCSK9 RNAi inhibitor group-3 (skin applied with 5% PCSK9 small interfering RNA-3 solution), and polypeptide group (subcutaneous injection of Abcam company ab32727, 3 mg/kg·d), positive control group (skin smeared with 5% minoxidil tincture), negative control group (smeared with 75% ethanol), model control group (smeared with 75% ethanol), 10 rats in each group, half male and half female.
Before the experiment, each rat selected an area of 4 cm×5 cm on the back to remove the hair as the observation area. Except for the negative control group, the rats were subcutaneously injected with testosterone propionate injection [[…]] at the back of the neck, once a day for 60 consecutive days to establish the SA model. […] At the same time, the rats in the corresponding drug group were smeared or subcutaneously injected on the skin of the observation area of the rats in the drug group, smeared 1 ml/(per time), twice a day, with an interval of 8 hours, and administered by subcutaneous injection, once a day. The negative control group and the model control group were smeared with excipient (75% ethanol solution), 1 mL one rat per time, twice a day, for 60 consecutive days.
10 hairs were extracted from the observation area on the back of each rat every 15 days after administration, and the hair length was measured with a vernier caliper. After 60 days of administration, the skin of the experimental observation area was taken for routine tissue dehydration, paraffin embedding, HE staining, and light microscopy to observe the histopathological changes of the rat skin hair follicles and sebaceous glands. Semi-quantitative analysis was carried out in each group. The grading standards are as follows: normal skin dermal tissue cells, subcutaneous hair follicles, and sebaceous glands were marked as “one”; no hyperplasia in the dermis, limited lesions of hair follicles and sebaceous glands, and no subcutaneous inflammation, marked as “±”; no obvious hyperplasia found in the dermis, obviously cystic follicles, no obvious hyperplasia found in the sebaceous glands, and no inflammation is recorded as “+”; segmental hyperplasia of skin and dermis was not obvious, a small number of hair follicles had cystic degeneration, and sebaceous glands had mild hyperplasia and hypertrophy. No obvious inflammation under the skin was recorded as “++”; the skin and dermis tissue cells had segmental hyperplasia of different degrees, some follicles degenerated, the size of the hair follicles was uneven, and there were no cells in the periphery. There was hyperplasia of sebaceous glands, and there were few nuclei in the hyperplasia glands. Individual rats had mild inflammatory hyperplasia under the skin, which was marked as “+++”.

tyrosinase = experiment: Tyrosinase intensity in skin tissue of vitiligo guinea pig model (immunohistochemistry, two-level scoring); assay type: in vivo; conditions: n = 10
Method: (§1) 10 in each group, Half male and female. Except for the blank control group, the other groups were smeared with 5% hydroquinone in the hair removal area for decolorization, 0.5 mL each time, twice a day, and the animals in the blank control group were smeared with an equal amount of normal saline every day. […] After modeling, the drug was administered in the above manner, once a day for 30 days.
The excised mouse skin tissue was fixed in 10% formalin dehydrated, cleared in xylene, embedded in paraffin, sectioned, deparaffinized to water, then 50 μL of peroxidase blocking agent (3% H2O2) was added to each section for 10 min to block endogenous peroxidase activity. The sections were immersed in 0.01 mol·L-1PBS buffer and microwaved for 10 min, added with 50 μL mouse anti-human tyrosinase monoclonal antibody, left at 37° C. for 60 min, then added with 50 μL of Elivision reagent, left at 37° C. for 30 min. The sections were then placed in freshly prepared DAB-H2O2 chromogenic solution for color development, rinsed with distilled water, stained with hematoxylin for contrast for 1 min, and sealed with neutral gum. The tyrosinase-positive product was located in the cytoplasm of the cell, shown as yellow or brownish-yellow granules or clumps in the cells under the microscope. The two-level scoring method was used to determine the results. If the number of positive cells was less than 5%, the score was 0; 5%˜25% is 1 point; 2 points for 25%˜50%; 3 points for 50%˜75%; >75% is 4 points. When classified according to staining intensity: 1 point for light yellow; 2 points for yellow or dark yellow; 3 points for brown or brownish yellow. If the sum of the two was less than 2, it was negative (−); 2-3 points as positive (+); 4-5 points as moderately positive (2+); 6-7 points as strongly positive (3+).

[2] = system: vitiligo guinea pig model caused by hydroquinone depigmentation; experiment: Vitiligo guinea pig model caused by hydroquinone depigmentation: counts of epidermal MC and melanin-granule-containing basal cells; assay type: in vivo; conditions: guinea pig skin after hydroquinone decolorization, drug once a day for 30 days, n = 10, x ± s
Method: as §1
After the observation, the mice were sacrificed, and the skin tissue on the back about 3 cm×3 cm was cut for histopathological examination.
The excised mouse skin tissue was fixed in 10% formalin for 1 hour, washed with running water for 3-4 min, and placed into a phosphate buffer solution (pH 7.4) containing 0.1% dihydroxyphenylalanine, and let stand at 37° C. for 1 hour. Then it was replaced with fresh Dopa reagent and left at 37° C. for 12 hours, rinsed with running water, and fixed with Bouin's solution continuously for 24 h. After the specimens were taken out, it was rinsed with running water for 4 hours, dehydrated, cleared in xylene, embedded in paraffin, deparaffinized to water, and stained with hematoxylin-eosin for contrast. Dehydrated and routinely mounted. After Dopa-oxidase staining, brownish-black staining was MC positive.
The excised mouse skin tissue was fixed in 10% formalin, dehydrated, cleared with xylene, embedded in paraffin, sectioned, deparaffinized to water, washed with distilled water several times, then stained with Lillie reagent, soaked with ferric chloride and potassium ferricyanide mixed solution for 15-20 minutes, then differentiated with 1% acetic acid aqueous solution for several minutes, washed with distilled water several times, then quickly dehydrated with 95% ethanol and absolute ethanol, cleared in xylene, and sealed with neutral gum. If melanin was dark green after Lillie reagent staining, it was positive.

B1: Evolocumab (antibody, chains of the INN, looked up, V domains shown)
VH: EVQLVQSGAEVKKPGASVKVSCKASGYTLTSYGISWVRQAPGQGLEWMGWVSFYNGNTNYAQKLQGRGTMTTDPSTSTAYMELRSLRSDDTAVYYCARGYGMDVWGQGTTVTVSS
VL: ESALTQPASVSGSPGQSITISCTGTSSDVGGYNSVSWYQQHPGKAPKLMIYEVSNRPSGVSNRFSGSKSGNTASLTISGLQAEDEADYYCNSYTSTSMVFGGGTKLTVL
notes: PCSK9 monoclonal antibody jointly developed by Amgen and Astellas, trade name Repatha
Skin hair follicles and sebaceous glands: number of rats graded ++ ([1]; 10 rats, after 60 days, few follicles with cystic degeneration, sebaceous glands mild hyperplasia and hypertrophy): 0 | Skin hair follicles and sebaceous glands: number of rats graded ± ([1]; 10 rats, after 60 days, no hyperplasia in the dermis, limited lesions of hair follicles and sebaceous glands, no subcutaneous inflammation): 4 | Skin hair follicles and sebaceous glands: number of rats graded + ([1]; 10 rats, after 60 days, no obvious hyperplasia in dermis, obviously cystic follicles, no inflammation): 3 | Skin hair follicles and sebaceous glands: number of rats graded − ([1]; 10 rats, after 60 days, normal skin dermal tissue cells, subcutaneous hair follicles and sebaceous glands): 3 | Skin hair follicles and sebaceous glands: number of rats graded +++ ([1]; 10 rats, after 60 days, segmental hyperplasia, degenerated follicles, hyperplasia of sebaceous glands, mild inflammatory hyperplasia): 0 | 15 d hair length ([1]; rats, 15 days after administration): 9.7* mm | 30 d hair length ([1]; rats, 30 days after administration): 10.8* mm | 45 d hair length ([1]; rats, 45 days after administration): 15.8* mm | 60 d hair length ([1]; rats, 60 days after administration): 19.5* mm | Color (units) (tyrosinase; score in brackets for staining colour): 4 units | Number of positive cells (units) (tyrosinase; score in brackets for tyrosinase-positive cells): 4 units | Total number (units) (tyrosinase; sum of positive-cell and colour scores): 7 units | Color (tyrosinase; tyrosinase staining colour): Brownish-yellow | Number of positive cells (tyrosinase; tyrosinase-positive cells): 40% | Epidermal melanocyte count ([2]; average number of MCs in each 100 epidermal basal cells): 46.2 ± 3.8 | Basal cells containing melanin granules count ([2]; average number per 100 epidermal basal cells): 41.2 ± 3.9
